Experimental data published in patent publication US8138307.

What was measured:
[1] = biological target: GAL4 activation domain-hsyt11AB fusion encoded by pGAD10-hsyt11AB (human synaptotagmin 11, domains C2A and C2B) (human) (UniProt Q9BT88); assay: yeast two-hybrid liquid assay (β-galactosidase, n=3)
[2] = biological target: GFP-syt11 (GFP fusion of full-length human synaptotagmin XI) (human) [GFP: P42212]; assay: co-immunoprecipitation with anti-HA agarose, anti-GFP blot

Chain of GAL4 activation domain-hsyt11AB fusion encoded by pGAD10-hsyt11AB (human synaptotagmin 11, domains C2A and C2B) (human) (Q9BT88 157-431 G231V): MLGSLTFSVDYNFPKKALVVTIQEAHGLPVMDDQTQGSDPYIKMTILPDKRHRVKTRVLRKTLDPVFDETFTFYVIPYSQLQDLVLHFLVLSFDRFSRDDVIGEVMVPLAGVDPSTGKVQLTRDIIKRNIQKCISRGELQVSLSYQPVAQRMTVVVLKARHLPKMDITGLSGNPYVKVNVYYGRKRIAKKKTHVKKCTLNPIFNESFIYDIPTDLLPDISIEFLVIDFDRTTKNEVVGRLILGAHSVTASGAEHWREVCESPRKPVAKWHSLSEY

fold β-galactosidase activity over pGBT9 vector control [1] [fold]	fold less interaction compared with parkinC418R [2] [fold less]	Substance
20	–	GAL4 binding domain-parkin(1-465) fusion encoded by pGBT9-parkin(1-465) (from UniProt P04386 1-147; O60260 1-465)
–	2.5	HA-tagged missense mutated parkin C289G (from UniProt O60260 1-465) (enzyme)
